Reference: patent publication US12129308 (Merck KGaA, dated 2024)
Where two headings read alike, the source gives them in different places. One block for each binder: values may come before it.

Assays:
activated human MMP13 [1] = target: T1, activated human MMP13 (human, UniProt P45452 104-471); experiment: cell-based or functional assay
Aggrecan = target: T2, Aggrecan; experiment: competition ELISA (CAP) on Aggrecan; competitor not stated
T2 construct: also called CAP

activated human MMP13 [2] = target: T1, activated human MMP13; experiment: competition ELISA: dilution series of Nanobody against 0.6 nM biotinylated 40E09 (C0101040E09-biotin) on APMA-activated human full-length MMP13 captured via mouse anti-human MMP13 mAb MAB511
activated human MMP13 [3] = target: T1, activated human MMP13; experiment: ELISA; activated MMP13 captured via mAb511, Nanobody detected with anti-FLAG-HRP
Procedure: (§1) After a washing step in PBS+0.05% Tween20, 20 nM activated human, rat or dog MMP13 were added for one hour at RT. After a second washing step, 10-fold dilutions of periplasmic extracts or dilution series of purified Nanobodies in PBS, 0.1% casein, 0.05% Tween 20 were added for one hour at RT. Bound Nanobodies were detected with mouse anti-FLAG-HRP (Sigma (A8592)).

activated rat MMP13 [4] = target: T3, activated rat MMP13 (rat, UniProt P23097 99-466); experiment: as above
T3 construct: also called MMP13 R. norvegicus NP_598214.1
Procedure: as §1

activated dog MMP13 [5] = target: T4, activated dog MMP13 (dog, UniProt P45452 104-471 (human entry)); experiment: as above
T4 construct: also called MMP13 C. lupus XP_536598.3
Procedure: as §1

activated human MMP13 [6] = target: T1, activated human MMP13; experiment: cell-based or functional assay; remark: listed apart in the source
activated human MMP13 [7] = target: T1, activated human MMP13; experiment: cell-based or functional assay; remark: listed apart in the source
[8] = target: T5, activated MMP13 (species not stated) (Homo sapiens (Human), UniProt P45452 104-471, Biotinylated in the TIMP-2 competition ELISA (sites not given). Activated form: pro-peptide removed.); experiment: cell-based or functional assay
activated human MMP13 [9] = target: T1, activated human MMP13; experiment: cell-based or functional assay; remark: listed apart in the source
activated rat MMP13 [10] = target: T3, activated rat MMP13; experiment: cell-based or functional assay
[11] = target: T5, activated MMP13 (species not stated); experiment: TIMP-2 competition ELISA; Nanobody pre-incubated with 1.26 nM activated MMP13-biotin, binding to captured TIMP-2
cynomolgus MMP13 = cynomolgus MMP13 (cynomolgus, UniProt A0A2K5U988 104-471); experiment: cell-based or functional assay
bovine MMP13 = bovine MMP13 (bovine, UniProt O77656 104-471); experiment: cell-based or functional assay
activated rat MMP13 [12] = target: T3, activated rat MMP13; experiment: cell-based or functional assay; remark: listed apart in the source
activated dog MMP13 [13] = target: T4, activated dog MMP13; experiment: cell-based or functional assay

potency, human fluorogenic peptide assay (activated human MMP13 [1]): 0.697 nM | IC50 (Aggrecan): 32 nM
B4: C010100724 (bispecific antibody)
chain: DVQLVESGGGLVQPGGSLRLSCAASGSIFSINAMGWYRQAPGKQRELVAAISSGGSTYYADSVKGRFTISRDNSKNTVYLQMNSLRPEDTAVYYCNAAVDASRGLPYELYYYWGQGTLVTVSSGGGGSGGGGSGGGGSGGGGSGGGGSGGGGSGGGGSEVQLVESGGGLVQPGGSLRLSCAASGRTFSSYTMGWFRQAPGKEREFVAAISWSGGRTYYADSVKGRFTISRDNSKNTVYLQMNSLRPEDTAVYYCAAYRRRRASSNRGLWDYWGQGTLVTVSSA
notes: MMP13-Aggrecan bispecific Nanobody construct; also called 529C12SO-604F02SO-A

potency, human fluorogenic peptide assay (activated human MMP13 [1]): 0.551 nM | IC50 (Aggrecan): 0.45 nM
B5: C010100682 (bispecific antibody)
chain: EVQLVESGGGLVQPGGSLRLSCAASGSIFSINAMGWYRQAPGKQRELVAAISSGGSTYYADSVKGRFTISRDNSKNTVYLQMNSLRPEDTAVYYCNAAVDASRGLPYELYYYWGQGTLVTVSSGGGGSGGGGSGGGGSGGGGSGGGGSGGGGSGGGGSEVQLVESGGGLVQPGGSLRLSCAASGSTFIINVVRWYRRAPGKQRELVATISSGGNANYVDSVRGRFTISRDNSKNTVYLQMNSLRPEDTAVYYCNVPTTHYGGVYYGPYWGQGTLVTVSSGGGGSGGGGSGGGGSGGGGSGGGGSGGGGSGGGGSEVQLVESGGGLVQPGGSLRLSCAASGSTFIINVVRWYRRAPGKQRELVATISSGGNANYVDSVRGRFTISRDNSKNTVYLQMNSLRPEDTAVYYCNVPTTHYGGVYYGPYWGQGTLVTVSS
notes: MMP13-Aggrecan bispecific Nanobody construct; also called 529C12SO-114F08SO-114F08SO

IC50 (read off the curve) (activated human MMP13 [2]): ~4 nM | EC50 (activated human MMP13 [3]): 0.66 nM | EC50 (activated rat MMP13 [4]): 0.44 nM | EC50 (activated dog MMP13 [5]): 0.38 nM | IC50, human collagenolytic assay (activated human MMP13 [6]): 10.2 nM | IC50 (read off the curve); fluorogenic Collagen assay, partial inhibition [left graph] (activated human MMP13 [7]): ~20 nM
B7: C0101PMP040E09 (VHH)
VHH: EVQLVESGGGSVQAGGSLRLSCAASGSTFSRYSMNWYRQAPGKQREFVAGISVGRITNYAVSVRGRFTISRDNAEGTGYLQMNSLKPEDTAVYYCNAGGLQGYWGLGTQVTVSS
notes: Profile 1 Nanobody; also called C0101040E09

IC50, fluorogenic peptide assay [8]: 2.5 nM | IC50, human fluorogenic collagen assay (activated human MMP13 [9]): 10.8 nM | IC50, (adapted) rat fluorogenic peptide assay (activated rat MMP13 [10]): 2.64 nM | IC50 [11]: 2.6 nM | IC50, human collagenolytic assay (activated human MMP13 [6]): 2.3 nM | IC50, human fluorogenic collagen assay (activated human MMP13 [6]): 10.9 nM | IC50, human fluorogenic peptide assay (activated human MMP13 [6]): 4.6 nM | IC50, cyno fluorogenic peptide assay (cynomolgus MMP13): 3 nM | IC50, bovine fluorogenic peptide assay (bovine MMP13): 6.4 nM | IC50, rat fluorogenic peptide assay (activated rat MMP13 [12]): 2.1 nM | IC50, dog fluorogenic peptide assay (activated dog MMP13 [13]): 3.4 nM
B8: C0101PMP517A01 (VHH)
VHH: DVQLVESGGGLVQPGGSLRLSCAASGRTFSSYAMGWFRQAPGKEREFVAAISWSGGSTYYADSVKGRFTISRDNSKNTVYLQMNSLRPEDTAVYYCTAALAVYGPNRYRYGPVGEYNYWGQGTLVTVSS
notes: Profile 2 Nanobody; also called C0101517A01; C010100087 (parental)

The next lines start with the binder.

B1: C010100681 (bispecific antibody)
chain: EVQLVESGGGLVQPGGSLRLSCAASGFTLAYYSIGWFRQAPGKEREGVSCISSGIDGSTYYADSVKGRFTISRDNAKNTMYLQMNNLKPEDTGVYYCAADPSHYYSEYDCGYYGMDYWGKGTLVTVSSGGGGSGGGGSGGGGSGGGGSGGGGSGGGGSGGGGSEVQLVESGGGLVQPGGSLRLSCAASGSTFIINVVRWYRRAPGKQRELVATISSGGNANYVDSVRGRFTISRDNSKNTVYLQMNSLRPEDTAVYYCNVPTTHYGGVYYGPYWGQGTLVTVSSGGGGSGGGGSGGGGSGGGGSGGGGSGGGGSGGGGSEVQLVESGGGLVQPGGSLRLSCAASGSTFIINVVRWYRRAPGKQRELVATISSGGNANYVDSVRGRFTISRDNSKNTVYLQMNSLRPEDTAVYYCNVPTTHYGGVYYGPYWGQGTLVTVSS
notes: MMP13-Aggrecan bispecific Nanobody construct; also called 80A01-114F08SO-114F08SO
potency, human fluorogenic peptide assay (activated human MMP13 [1]): 1.08 nM | IC50 (Aggrecan): 0.99 nM

B2: C010100702 (bispecific antibody)
chain: EVQLVESGGGLVQPGGSLRLSCAASGRTFSSYAMGWFRQAPGKEREFVAAISWSGGSTYYADSVKGRFTISRDNSKNTVYLQMNSLRPEDTAVYYCTAALAVYGPSRYRYGPVGEYQYWGQGTLVTVSSGGGGSGGGGSGGGGSGGGGSGGGGSGGGGSGGGGSEVQLVESGGGSVQPGGSLRLSCAASGSTFSRYSMNWYRQAPGKQREFVAGISVGRITNYAVSVRGRFTISRDNSEGTGYLQMNSLRPEDTAVYYCNAGGLQGYWGLGTLVTVSSGGGGSGGGGSGGGGSGGGGSGGGGSGGGGSGGGGSEVQLVESGGGLVQPGGSLRLSCAASGSTFIINVVRWYRRAPGKQRELVATISSGGNANYVDSVRGRFTISRDNSKNTVYLQMNSLRPEDTAVYYCNVPTTHYGGVYYGPYWGQGTLVTVSSGGGGSGGGGSGGGGSGGGGSGGGGSGGGGSGGGGSEVQLVESGGGLVQPGGSLRLSCAASGSTFIINVVRWYRRAPGKQRELVATISSGGNANYVDSVRGRFTISRDNSKNTVYLQMNSLRPEDTAVYYCNVPTTHYGGVYYGPYWGQGTLVTVSS
notes: also called 517A01SO-40E09SOvar-114F08SO-114F08SO
potency, human fluorogenic peptide assay (activated human MMP13 [1]): 0.0771 nM | IC50 (Aggrecan): 0.12 nM

B3: C010100729 (bispecific antibody)
chain: DVQLVESGGGLVQPGGSLRLSCAASGRTFSSYAMGWFRQAPGKEREFVAAISWSGGSTYYADSVKGRFTISRDNSKNTVYLQMNSLRPEDTAVYYCTAALAVYGPSRYRYGPVGEYQYWGQGTLVTVSSGGGGSGGGGSGGGGSGGGGSGGGGSGGGGSGGGGSEVQLVESGGGLVQPGGSLRLSCAASGSTFSRYSMNWYRQAPGKQREFVAGISVGRITNYAVSVKGRFTISRDNSKNTGYLQMNSLRPEDTAVYYCNAGGLQGYWGQGTLVTVSSGGGGSGGGGSGGGGSGGGGSGGGGSGGGGSGGGGSEVQLVESGGGLVQPGGSLRLSCAASGRTFSSYTMGWFRQAPGKEREFVAAISWSGGRTYYADSVKGRFTISRDNSKNTVYLQMNSLRPEDTAVYYCAAYRRRRASSNRGLWDYWGQGTLVTVSSA
notes: also called 517A01SO-40E09SO-604F02SO-A
potency, human fluorogenic peptide assay (activated human MMP13 [1]): 0.541 nM | IC50 (Aggrecan): 21 nM

B6: C010100690 (bispecific antibody)
chain: EVQLVESGGGLVQPGGSLRLSCAASGFTLAYYSIGWFRQAPGKEREGVSCISSGIDGSTYYADSVKGRFTISRDNAKNTMYLQMNNLKPEDTGVYYCAADPSHYYSEYDCGYYGMDYWGKGTLVTVSSGGGGSGGGGSGGGGSGGGGSGGGGSGGGGSGGGGSEVQLVESGGGLVQPGGSLRLSCAASGRTFSSYTMGWFRQAPGKEREFVAAISWSGGRTYYADSVKGRFTISRDNSKNTVYLQMNSLRPEDTAVYYCAAYRRRRASSNRGLWDYWGQGTLVTVSS
notes: MMP13-Aggrecan bispecific Nanobody construct; also called 80A01-604F02SO
potency, human fluorogenic peptide assay (activated human MMP13 [1]): 2.42 nM | IC50 (Aggrecan): 24 nM
